Experimental data from US20200223885A1 (TOSOH, published 2020).

B1: FcR9_F_Cys (FcR9_F with a cysteine tag added) (receptor)
chain: MGMRTEDLPKAEVILEPQWNRVLEKDSVTLKCRGAYSPEDNSTQWFHNESLISSQASSYLIDAATVDDSGEYRCQTSLSTLSDPVQLEVHIGWLLLQAPRWEFKEGDPIHLRCHSWKNTALHKVTYLQNGKGRKYFHHNSDFYIPKATLKDSGSYSCRGLFGSKNVSSETVNITITQGCRNDTCG
notes: also called FcR9_F-immobilized gel; FcR9_F column
B2: Fc-binding protein FcR9 (human FcγRIIIa amino acid substitution product) (receptor)
chain: KIEEAMGMRTEDLPKAEVILEPQWNRVLEKDSVTLKCRGAYSPEDNSTQWFHNESLISSQASSYLIDAATVDDSGEYRCQTSLSTLSDPVQLEVHIGWLLLQAPRWEFKEGDPIHLRCHSWKNTALHKVTYLQNGKGRKYFHHNSDFYIPKATLKDSGSYSCRGLVGSKNVSSETVNITITQGGHHHHHH

Tests used:
[1] = target: T1, monoclonal antibody (RITUXAN, manufactured by Zenyaku Kogyo Co., Ltd.); experiment: affinity chromatography on the FcR9_F-immobilized gel column; equilibration 20 mM acetate, 50 mM NaCl, pH 5.0; elution by pH gradient to 10 mM glycine-HCl pH 3.0; 0.6 mL/min; A280
T1 construct: That tie rests on the trade name; also called rituximab
T1 sequence (heavy, as listed by the source, chain 1 of 2): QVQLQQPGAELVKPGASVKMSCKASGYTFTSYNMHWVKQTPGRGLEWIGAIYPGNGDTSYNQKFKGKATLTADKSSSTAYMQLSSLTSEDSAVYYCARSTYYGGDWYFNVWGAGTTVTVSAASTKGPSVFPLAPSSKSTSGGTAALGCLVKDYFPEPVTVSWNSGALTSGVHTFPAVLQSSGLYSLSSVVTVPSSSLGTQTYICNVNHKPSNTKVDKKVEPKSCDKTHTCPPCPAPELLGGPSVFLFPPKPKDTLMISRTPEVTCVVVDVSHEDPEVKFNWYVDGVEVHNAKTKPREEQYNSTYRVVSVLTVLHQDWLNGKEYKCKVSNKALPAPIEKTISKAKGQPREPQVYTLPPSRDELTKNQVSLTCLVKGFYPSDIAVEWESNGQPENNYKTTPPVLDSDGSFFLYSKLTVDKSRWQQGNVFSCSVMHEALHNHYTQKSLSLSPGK
T1 sequence (light, as listed by the source, chain 2 of 2): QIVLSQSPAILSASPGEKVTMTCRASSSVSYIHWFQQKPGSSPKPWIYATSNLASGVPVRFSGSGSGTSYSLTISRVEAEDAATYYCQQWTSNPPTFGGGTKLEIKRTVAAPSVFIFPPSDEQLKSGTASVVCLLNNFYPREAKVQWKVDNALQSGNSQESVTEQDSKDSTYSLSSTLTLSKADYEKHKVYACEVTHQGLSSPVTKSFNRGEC
Description: (4) Five microliters of a monoclonal antibody (RITUXAN, manufactured by Zenyaku Kogyo Co., Ltd.), which was diluted with phosphate buffered saline (PBS) (pH 7.4) to yield a concentration of 1.0 mg/mL, was added at a flow rate of 0.6 mL/min.
(5) Washing was performed with the equilibration buffer for 2 minutes while the flow rate was maintained at 0.6 mL/min. Subsequently, a monoclonal antibody adsorbed was eluted with a pH gradient of 10 mM glycine-HCl buffer (pH 3.0) (i.e., a gradient in which 10 mM glycine-HCl buffer (pH 3.0) accounts for 100% in 28 minutes).

[2] = target: T2, IgG1 (manufactured by Sigma-Aldrich); experiment: SPR (Biacore T100), Fc-binding protein amine-coupled to CM5, IgG1 as analyte
T2 construct: Analyte in the SPR assay, diluted in HBS-EP; also called IgG1 antibody
Description: (7) IgG1-binding ability of each Fc-binding protein collected as the elution fraction in (6) was evaluated using the surface plasmon resonance method. Upon measurement of the binding ability using the surface plasmon resonance method, Biacore T100 (manufactured by GE Healthcare) was used as a measurement system, Sensor Chip CM5 (manufactured by GE Healthcare) was used as a sensor chip, and Biacore T100 Evaluation Software (manufactured by GE Healthcare) was used as analysis software.
(8) A solution prepared by diluting IgG1 (manufactured by Sigma-Aldrich) with HBS-EP (manufactured by GE Healthcare) was supplied to a sensor chip on which each Fc-binding protein was separately immobilized using an Amine Coupling Kit (manufactured by GE Healthcare), thereby obtaining a sensorgram. Curve fitting was performed based on the sensorgram so as to calculate IgG1-binding ability.

Binder	binding result [1]	Kd [2]	koff [2]	kon [2]
B1	binds	–	–	–
B2	–	77.3 nM	0.0313 s⁻¹	405000 M⁻¹ s⁻¹
